Laboratory results from US20240263208A1, “CYTOCHROME P450 ENZYME” (HYPHA DISCOVERY LTD., priority 2021, published 2024).
Blank lines part the entries; values can stand above or below the molecule they belong to.

Assays:
Format in all cases: biochemical
[1] = Oxidase activity testing against celecoxib; conditions: substrate Celecoxib
Protocol: (§1) Lyophilised material of recombinant P450, ferredoxin and ferredoxin reductase proteins was made as described in Example 4 and reconstituted in high purity water to the original volume. Biocatalysis was performed with shaking incubation at 27° C. in the following conditions: 100 mM potassium phosphate pH 8.0, 5 mM MgCl2 (both present in the reconstituted enzyme preparation) and 0.1 mg/ml substrate compound such as ambroxide (Sigma-Aldrich, UK), carbamazepine (Sigma-Aldrich, UK), diclofenac (Sigma-Aldrich, UK), tivantinib (MedChemtronica, Sweden), clarithromycin (Tokyo Chemical Industry, Japan), sclareol (Sigma-Aldrich, UK), celecoxib (LC Laboratories, USA), buparvaquone (Sigma-Aldrich, UK), BIRB796 (MedChemExpress, USA), vanoxerine (CiVentiChem, USA), valsartan (Tokyo Chemical Industry, Japan), ruxolitinib (LC Laboratories, USA), perindopril (Selleckchem, USA), solifenacin (Key Organics, UK), 7-ethoxycoumarin (Tokyo Chemical Industry, Japan), tofacitinib (LC Laboratories, USA), ebastine (Key Organics, UK), efavirenz (Key Organics, UK), propanalol (Sigma-Aldrich, UK) and tolbutamide (Key Organics, UK).
(§2) Concentrations of P450, ferredoxin and ferredoxin reductase were as extracted (Example 4). Reactions were initiated by addition of 10× stock of cofactor mixture (50 mM G6P, 10 mM NADP+, 10 UN/ml G6PDH) to provide a final volume of e.g., 10 μl to 90 μl for 100 μl total reaction volumes. After 16-20 hours, reactions were extracted with an equal volume of acetonitrile, centrifuged to remove precipitated proteins and conversion assessed by UPLC-MS analysis.
(§3) UPLC Data were Obtained as Follows: • Column: Acquity UPLC BEH Shield RP18 1.7 μm 2.1 mm i.d. 50 mm length • Solvents: H2O, B: Acetonitrile, both with 0.1% Formic acid • Flow rate: 1.0 ml/min • Detector: Waters Acquity UPLC PDA (UV-Vis detection) and Waters Acquity UPLC QDA (MS)
(§4) Representative results for the % conversions of various substrates to products by enzymes with mutations at position T109 or L198 and double mutants at T109 and 1129/L198 are shown in Table 4 below.

[2] = Oxidase activity testing against clarithromycin; conditions: substrate Clarithromycin
Protocol: as §1, §2, §3, §4

[3] = Oxidase activity testing against 7-ethoxycoumarin; conditions: substrate 7-ethoxycoumarin
Protocol: as §1, §2, §3, §4

[4] = Oxidase activity testing against propanalol; conditions: substrate Propanalol
Protocol: as §1, §2, §3, §4

[5] = Oxidase activity testing against tolbutamide; conditions: substrate Tolbutamide
Protocol: as §1, §2, §3, §4

[6] = Oxidase activity testing against efavirenz; conditions: substrate Efavirenz
Protocol: as §1, §2, §3, §4

[7] = Oxidase activity testing against tofacitinib; conditions: substrate Tofacitinib
Protocol: as §1, §2, §3, §4

[8] = Oxidase activity testing against perindopril; conditions: substrate Perindopril
Protocol: as §1, §2, §3, §4

[9] = Oxidase activity testing against sclareol; conditions: for Average % conversion: substrate Sclareol, UPLC-MS UV or MS peak areas
Protocol: as §1, §2, §3, §4

[10] = Oxidase activity testing against solifenacin; conditions: substrate Solifenacin
Protocol: as §1, §2, §3, §4

[11] = Oxidase activity testing against carbamazepine; conditions: for +16 Da (1.18 min) 253 m/z: 2-hydroxycarbamazepine; for +16 Da (1.18 min) 253 m/z / +16 Da (1.14 min) 253 m/z / Parent (1.31 min) 237 m/z: relative MS peak area; for +16 Da (1.14 min) 253 m/z: carbamazepine epoxide; for reaction products from carbamazepine (in words): new product at 1.18 minutes identified as 2-hydroxycarbamazepine, epoxide at 1.14 minutes; for Parent (1.31 min) 237 m/z: remaining carbamazepine, 0.1 mg/ml, 27° C., 16-20 hours; for Average % conversion: substrate carbamazepine, relative MS peak areas
Protocol: as §1, §2, §3
To confirm the identities of reaction products where known, their chromatographic retention time, mass and ultraviolet spectra were compared with those of authentic metabolite standards.
Representative results for the % conversions of carbamazepine to oxidised (+16 Da) products for single point mutants at position L198 are shown in Table 3 below.

[12] = Oxidase activity testing against vanoxerine; conditions: substrate Vanoxerine
Protocol: as §1, §2, §3, §4

[13] = Oxidase activity testing against ruxolitinib; conditions: substrate Ruxolitinib
Protocol: as §1, §2, §3, §4

[14] = Oxidase activity testing against valsartan; conditions: substrate Valsartan
Protocol: as §1, §2, §3, §4

[15] = Oxidase activity testing against BIRB796; conditions: substrate BIRB796
Protocol: as §1, §2, §3, §4

[16] = Oxidase activity testing against ebastine; conditions: for Average % conversion: substrate Ebastine
Protocol: as §1, §2, §3, §4

[17] = Oxidase activity testing against buparvaquone; conditions: substrate Buparvaquone
Protocol: as §1, §2, §3, §4

+16 Da (1.18 min) 253 m/z [11]: 1.1%
+16 Da (1.14 min) 253 m/z [11]: 15.8%
reaction products from carbamazepine (in words) [11]: produce a new product
Parent (1.31 min) 237 m/z [11]: 83.1%
B1: SeuC10M9: P450SeuC10 with L198A mutation, SEQ ID NO: 22 (protein)
chain: MKIGTTHLTRLRGLSMTELTDITGPAAQAETVAFPQDRTCPYHPPTGYDPLRDGRPLSRVTLYDGREVWLVTAQATARALLADPRLSTDRRRDGFPVPTPRFAAGRDRTLALLGLDDPEHHRQRRLLIPSFTLKRATAQRPWIQRIVDELLDAMIARGPVADLVSAFALPVPSMVICELLGVPYADHEFFEEQSRRLARGPTGADTTDARDRLEAYLGDLIDAKAKEAEPGDGILDDLVHNRLRAGELDRSVLVSLAVILLVAGHETTANMISLGTYTLLQHPERLAELRADPSLLPAVVEELLRMLSIAEGLQRLALEDIEIDGITIRAGEGVLFSTSVINRDTAVYEDPDDLDFHRADRHHVAFGFGIHQCLGQNLARAELEIALGSLFTRLPGLRLAAPAEEIPFKPGDTVQGMLELPVTW
modifications: SeuC10M9
Average % conversion ([1]; Batch 1): 2.6%
Average % conversion ([2]; Batch 1): 0%
Average % conversion ([3]; Batch 1): 10.7%
Average % conversion ([4]; Batch 1): 0%
Average % conversion ([5]; Batch 1): 14.7%
Average % conversion ([6]; Batch 1): 3.1%
Average % conversion ([7]; Batch 1): 6.2%
Average % conversion ([8]; Batch 1): 15.7%
conversion of sclareol compared to wild-type (in words) [9]: significantly increased conversion
Average % conversion ([9]; Batch 1): 75.2%
Average % conversion ([10]; Batch 1): 0.8%
Average % conversion [11]: 16.9%
Average % conversion ([12]; Batch 1): 23%
Average % conversion ([13]; Batch 1): 55.1%
Average % conversion ([14]; Batch 1): 6.9%
Average % conversion ([15]; Batch 1): 10%
conversion of ebastine compared to wild-type (in words) [16]: significantly increased conversion
Average % conversion ([16]; Batch 1): 25.1%
Average % conversion ([17]; Batch 1): 1.2%

+16 Da (1.18 min) 253 m/z [11]: 3.5%
+16 Da (1.14 min) 253 m/z [11]: 6.8%
reaction products from carbamazepine (in words) [11]: produce a new product
Parent (1.31 min) 237 m/z [11]: 89.7%
B2: SeuC10M20: P450SeuC10 with L198W mutation, SEQ ID NO: 44 (protein)
chain: MKIGTTHLTRLRGLSMTELTDITGPAAQAETVAFPQDRTCPYHPPTGYDPLRDGRPLSRVTLYDGREVWLVTAQATARALLADPRLSTDRRRDGFPVPTPRFAAGRDRTLALLGLDDPEHHRQRRLLIPSFTLKRATAQRPWIQRIVDELLDAMIARGPVADLVSAFALPVPSMVICELLGVPYADHEFFEEQSRRLWRGPTGADTTDARDRLEAYLGDLIDAKAKEAEPGDGILDDLVHNRLRAGELDRSVLVSLAVILLVAGHETTANMISLGTYTLLQHPERLAELRADPSLLPAVVEELLRMLSIAEGLQRLALEDIEIDGITIRAGEGVLFSTSVINRDTAVYEDPDDLDFHRADRHHVAFGFGIHQCLGQNLARAELEIALGSLFTRLPGLRLAAPAEEIPFKPGDTVQGMLELPVTW
modifications: SeuC10M20
Average % conversion ([1]; Batch 1): 6.9%
Average % conversion ([2]; Batch 1): 0%
Average % conversion ([3]; Batch 1): 11.4%
Average % conversion ([4]; Batch 1): 0%
Average % conversion ([5]; Batch 1): 13.7%
Average % conversion ([6]; Batch 1): 0%
Average % conversion ([7]; Batch 1): 5.9%
Average % conversion ([8]; Batch 1): 16.5%
Average % conversion ([9]; Batch 1): 0%
Average % conversion ([10]; Batch 1): 0.6%
Average % conversion [11]: 10.3%
Average % conversion ([12]; Batch 1): 29.4%
Average % conversion ([13]; Batch 1): 42.7%
Average % conversion ([14]; Batch 1): 25%
Average % conversion ([15]; Batch 1): 45.3%
Average % conversion ([16]; Batch 1): 19.2%
Average % conversion ([17]; Batch 1): 1.7%

+16 Da (1.18 min) 253 m/z [11]: 3.1%
+16 Da (1.14 min) 253 m/z [11]: 42.3%
reaction products from carbamazepine (in words) [11]: produce a new product
Parent (1.31 min) 237 m/z [11]: 54.6%
B3: SeuC10M13: P450SeuC10 with L198F mutation, SEQ ID NO: 30 (protein)
chain: MKIGTTHLTRLRGLSMTELTDITGPAAQAETVAFPQDRTCPYHPPTGYDPLRDGRPLSRVTLYDGREVWLVTAQATARALLADPRLSTDRRRDGFPVPTPRFAAGRDRTLALLGLDDPEHHRQRRLLIPSFTLKRATAQRPWIQRIVDELLDAMIARGPVADLVSAFALPVPSMVICELLGVPYADHEFFEEQSRRLFRGPTGADTTDARDRLEAYLGDLIDAKAKEAEPGDGILDDLVHNRLRAGELDRSVLVSLAVILLVAGHETTANMISLGTYTLLQHPERLAELRADPSLLPAVVEELLRMLSIAEGLQRLALEDIEIDGITIRAGEGVLFSTSVINRDTAVYEDPDDLDFHRADRHHVAFGFGIHQCLGQNLARAELEIALGSLFTRLPGLRLAAPAEEIPFKPGDTVQGMLELPVTW
modifications: SeuC10M13
Average % conversion ([1]; Batch 1): 26.8%
Average % conversion ([2]; Batch 1): 0%
Average % conversion ([3]; Batch 1): 31.2%
Average % conversion ([4]; Batch 1): 0%
Average % conversion ([5]; Batch 1): 27.9%
Average % conversion ([6]; Batch 1): 0%
Average % conversion ([7]; Batch 1): 32.2%
Average % conversion ([8]; Batch 1): 38.2%
Average % conversion ([9]; Batch 1): 41.3%
Average % conversion ([10]; Batch 1): 0.8%
Average % conversion [11]: 45.4%
Average % conversion ([12]; Batch 1): 29.4%
Average % conversion ([13]; Batch 1): 98.1%
Average % conversion ([14]; Batch 1): 12%
Average % conversion ([15]; Batch 1): 54.6%
Average % conversion ([16]; Batch 1): 14.7%
Average % conversion ([17]; Batch 1): 39.1%

B4: M52: P450SeuC10 with T109D mutation, SEQ ID NO: 122 (protein)
chain: MKIGTTHLTRLRGLSMTELTDITGPAAQAETVAFPQDRTCPYHPPTGYDPLRDGRPLSRVTLYDGREVWLVTAQATARALLADPRLSTDRRRDGFPVPTPRFAAGRDRDLALLGLDDPEHHRQRRLLIPSFTLKRATAQRPWIQRIVDELLDAMIARGPVADLVSAFALPVPSMVICELLGVPYADHEFFEEQSRRLLRGPTGADTTDARDRLEAYLGDLIDAKAKEAEPGDGILDDLVHNRLRAGELDRSVLVSLAVILLVAGHETTANMISLGTYTLLQHPERLAELRADPSLLPAVVEELLRMLSIAEGLQRLALEDIEIDGITIRAGEGVLFSTSVINRDTAVYEDPDDLDFHRADRHHVAFGFGIHQCLGQNLARAELEIALGSLFTRLPGLRLAAPAEEIPFKPGDTVQGMLELPVTW
modifications: SeuC10M52
Average % conversion ([1]; Batch 2): 29.7%
Average % conversion ([2]; Batch 2): 1%
Average % conversion ([3]; Batch 2): 17.3%
Average % conversion ([4]; Batch 2): 0%
Average % conversion ([5]; Batch 2): 26.3%
Average % conversion ([6]; Batch 2): 0%
Average % conversion ([7]; Batch 2): 38.2%
Average % conversion ([8]; Batch 2): 37.9%
Average % conversion ([9]; Batch 2): 25.4%
Average % conversion ([10]; Batch 2): 17.2%
Average % conversion ([12]; Batch 2): 65%
Average % conversion ([13]; Batch 2): 87.7%
Average % conversion ([14]; Batch 2): 16.1%
Average % conversion ([15]; Batch 2): 13%
Average % conversion ([16]; Batch 2): 3.1%
Average % conversion ([17]; Batch 2): 24.8%
